{
  "source": "the DeepSol protein solubility set",
  "data": [
    {"assay": "soluble on expression in E. coli; label from the status in PepcDB or PDB records", "values": [
      {"sequence": "MSISSIPSSPSISGSSTSSTAPNISFCYTWTTKLKTRKTADGEATILSISPKFATVHQLISFQWNIRIHATSEMNEEDEEVDYVAVDLYLVDGPVNEVNVMAEVGALEKTSTATLGSLPAGQKEAKTIKMQKGSGCEITDADRECVSKYLKENTRLFEPSTYLDAISPTPRASFLTANYNARVNSKVWKRRSRKRNGRIERRVLSDKEKTKYESKVQMILDEEREKLCDKREMLKEDDGGSRRASLISQFRENQHESVLDDHMFKRILVSCCESCEQRRLSFMCDSRTEDDSEGEDCEDNEEDDGEGGSDDEEDDGEEPHFECDKSDKEHVHDMLANLYFNKVVLPEMEYVEDFVDFLIDAELNDLPVLKRACERYLCSELNSKKDIGTCLLLDLLFNSIVFNLPVMKSMTLTELANRTHEFVDADTLLDQEEFKNLDKRMRTLADRNLVELIEQCVTFRDQKARVRVLPTAESFDISFDLTNQ", "soluble on expression in E. coli": "not soluble"},
      {"sequence": "MSLNIIERQKLTQSLKLSQMMKLSINILKMSVMDLNKFIEKEFSEDSGISVELNYSKKENFNGGKEAEMNYPTDEKNFFQILEEQLSYFKINKKIKEICIFIINNLDKKGYLELSKIEIKDILEVSNKELEEAFDIIHNLEPYGIGAYSLEECLKIQLKAKKIIEEKLSLFIDNYLYLLADKKYDLIKEKLNINDNILFSYIDIIKSLNPIPSRGYSVGKVRKIIPDVLVEIKKNEIFYEINRASIPQINVKDKIEDEGHHHHHH", "soluble on expression in E. coli": "not soluble"},
      {"sequence": "MGSDKIHHHHHHMTTKKFRMEDVGLSKLKVEKNPKDVKQTEWKSVLPNEVYRVARESGTETPHTGGFNDHFEKGRYVCLCCGSELFNSDAKFWAGCGWPAFSESVGQDANIVRIVDRSHGMHRTEVRCKTCDAHLGHVFNDGPKETTGERYCINSVCMAFEKKD", "soluble on expression in E. coli": "not soluble"},
      {"sequence": "MGSDKIHHHHHHMNTGASAGVCDAFDRGRFRNAIEVFSSRMPAEIRTARASDVDDLAAIEKAVFSSDRISRRSFRLFIERETAETLVAEVDGRVAGYAIVLFRKGSGVARLYSIAVGPFFGALGIGRQLLTAAEEAAFEHDRMMLRLEVREDNSRAIRIYEQAGYRKIGREPGYYEDGATALRYEKTLRGDLPVATRVPFYQQTCEFTCGPCCLMMAMANFDRGFVPDPVMEIRLWREATTVFMMSGPGGCEPFGLAVSGYESGLAAEIFVSFYGALFLQSVRSEDKRRVMELAQVDFRRRAELYGIPVNCRPFTLDDIRTAIAAGKLVLVLISGFLMFGKKVPHWVLAIGDDGDHILIHDPWVEDERQETILDAANIPVPYGIFMNMAQFGRDGLRAAITLGKRDTQ", "soluble on expression in E. coli": "not soluble"},
      {"sequence": "FDGNLKRYLKSEPIPESNDGPVKVVVAENFDEIVNNENKDVLIEFYAPWCGHCKNLEPKYKELGEKLSKDPNIVIAKMDATANDVPSPYEVRGFPTIYFSPANKKLNPKKYEGGRELSDFISYLQREAT", "soluble on expression in E. coli": "soluble"},
      {"sequence": "MENSDDIRLIVKIAQLYYEQDMTQAQIARELGIYRTTISRLLKRGREQGIVTIAINYDYNENLWLEQQLKQKFGLKEAVVASSDGLLEEEQLSAMGQHGALLVDRLLEPGDIIGFSWGRAVRSLVENLPQRSQSRQVICVPIIGGPSGKLESRYHVNTLTYGAAARLKAESHLADFPALLDNPLIRNGIMQSQHFKTISSYWDSLDVALVGIGSPAIRDGANWHAFYGSEESDDLNARHVAGDICSRFYDINGGLVDTNMSEKTLSIEMAKLRQARYSIGIAMGEEKYSGILGALHGRYINCLVTNRETAELLLK", "soluble on expression in E. coli": "soluble"},
      {"sequence": "MSLAQTNQAEVGEPAPNFTLQAADGDEHSLADFEGQYVVLEWLNFGCPFVGKHYGSGNMQRLQDTYTDEGVVWLSIVSSAPGKQGYYPPGEMVEQKKKHDGNMTAILMDPEGEVGKTYDATVTPHMYVISPEGELLYRGGIDDKPTTDEADIEGATNYVRMALDAAMNGEEVRPKRAEPYGCTIKYASKEGHHHHHH", "soluble on expression in E. coli": "soluble"},
      {"sequence": "MEGGSITPGEDKPEIQSPIPPNQIFILSGQSNMAGRGGVFKDHHNNRWVWDKILPPECAPNSSILRLSADLRWEEAHEPLHVDIDTGKVCGVGPGMAFANAVKNRLETDSAVIGLVPCASGGTAIKEWERGSHLYERMVKRTEESRKCGGEIKAVLWYQGESDVLDIHDAESYGNNMDRLIKNLRHDLNLPSLPIIQVAIASGGGYIDKVREAQLGLKLSNVVCVDAKGLPLKSDNLHLTTEAQVQLGLSLAQAYLSNFC", "soluble on expression in E. coli": "soluble"},
      {"sequence": "SLLCGPLRLSESGETWSEVWAAIPMSDPQVLHLQGGSQDGRLPRTIPLPSCKLSVPDPEERLDSGHVWKLQWAKQSWYLSASSAELQQQWLETLSTAAH", "soluble on expression in E. coli": "soluble"},
      {"sequence": "MVPRTEIVAIEYGTPIEELKARFIESGISKIIVYKENIDNIIGYIHSSEMFREQTDWTKSVRQLPIAPETMGAHKLMKLFMQQKKSLAVVVDEFGGTSGIVALEDLVEEIFGEIEDEHDTTSYIA", "soluble on expression in E. coli": "not soluble"},
      {"sequence": "MNIKQFNEHITSLFGEHLHKYGDDEYGFTHISKDEFHKIGYTTNLTLETIEEAYRNGVDMIVTHHAPWSFLFGMEEACIEKLKQYEMNHFWVHLPLDFVKFGTCTSLFNGIGIDTILEYSTYEEEELPGIGEYKEAIPFSNLVGKLEERMEEKVKSWRNHDKPVKRIAILTGAGNNTNLIERALEKGCDTYITGEKTLYTVQHAKFKGINLIVGSHTFTEVFGVESLAHKLKERDNSIEITRLNEEHLELEHHHHHH", "soluble on expression in E. coli": "not soluble"},
      {"sequence": "SLTTLTVRVFTTAEIIYRKTVIALVCHLNCSRQETVTMNKTITALAIMMASFAANASVLPETPVPFKSGTGAIDNDTVYIGLGSAGTAWYKLDTQAKDKKWTALAAFPGGPRDQATSAFIDGNLYVFGGIGKNSEGLTQVFNDVHKYNPKTNSWVKLMSHAPMGMAGHVTFVHNGKAYVTGGVNQNIFNGYFEDLNEAGKDSTAIDKINAHYFDKKAEDYFFNKFLLSFDPSTQQWSYAGESPWYGTAGAAVVNKGDKTWLINGEAKPGLRTDAVFELDFTGNNLKWNKLAPVSSPDGVAGGFAGISNDSLIFAGGAGFKGSRENYQNGKNYAHEGLKKSYSTDIHLWHNGKWDKSGELSQGRAYGVSLPWNNSLLIIGGETAGGKAVTDSVLITVKDNKVTVQN", "soluble on expression in E. coli": "not soluble"},
      {"sequence": "MQALKTKSNIGEMFNIQEKENGEIAISGRELHQALEVSTRYDKWFERMTEYGFENGIDFISQVEKVHGQKRARTYEQVNHILTLDTAKEIAMIQRSEPGKRARQYFIQVEKAWNSPEMIMQRALKIANNTINQLETKIERDKPKIVFADAVATTKTSILVGELAKIIKQNGINIGQRRLFEWLRQNGFLIKRKGVDYNMPTQYSMERELFEIKETSITHSDGHTSISKTPKVTGKGQQYFVNKFLGEKQTS", "soluble on expression in E. coli": "not soluble"},
      {"sequence": "VSYVSVLPATLATAATEVARIGSALSLASAVAAAQTSAVQAAAADEVSAAIAALFSAHGRDFQALSARAAAFHHEFVQALAAGAGSYAVAEIAAASPLQSLIDVFNAPIQAATGRPLIGNGANGQPGTGAPGGPAGG", "soluble on expression in E. coli": "soluble"},
      {"sequence": "MGSDKIHHHHHHQAEPAPLASAGPAANDPLEGFNRASFKLGMGLDRALLAPITHGYMAVTPRVVRDRVSLVIYNMGEPNTVMNQVLQGKPRQAVRSSTRFVVNSTVGVAGLFDVAAKMGLPPRGADFGQTFGRWGAGPGAYIYVPLMGPLNVRDGVGRALDIVTDPVSLFVGGLDTDFGRARTAITVVDLRATTDSAYEALKDASDPYVTTRSAYAQYREAFVREATGESEALPDFDAPPSEPNTSSATPNP", "soluble on expression in E. coli": "not soluble"},
      {"sequence": "HGTMEVPINRTYSCSKEGAESPKTPACQEAKRVGGTQAMYDWNGINQNPPGDNHQSVVPDGTLCGGGQAKFKGFNLARTDWPTTNIVPDAKGNFEFIYTATMPHATKYFKFYVTRNGWNPNQPLKWSDLEPFGTYNGNPPLDDKQRYHMTMKLPTGKTGRHIIYNVWKRSDSEEAFYSCSDVNFTN", "soluble on expression in E. coli": "not soluble"},
      {"sequence": "MAFSIMGILTIMEFLVYRDTRMKYEYEVDKDFTSKIRLNIDITVAMKCQYVGADVLDLAETMVTSAQGLAYQPVSLCSRTISNTSCGVSGKLWIQSTENVKVVTDAVSLVPNRLNSCSAGDI", "soluble on expression in E. coli": "not soluble"},
      {"sequence": "SPSAQELKEQGNRLFVGRKYPEAAACYGRAITRNPLVAVYYTNRALCYLKMQQPEQALADCRRALELDGQSVKAHFFLGQCQLEMESYDEAIANLQRAYSLAKEQRLNFGDDIPSALRIAKKKRWNSIEERRIHQESELHSYLTRLIAAERERELEECQRNHEGHEDDGHIRAQQACIEAKHDKYMADMDELFSQVDEKRKKRDIPDYLCGKISFELMREPCITPSGITYDRKDIEEHLQRVGHFNPVTRSPLTQEQLIPNLAMKEVIDAFISENGWVEDY", "soluble on expression in E. coli": "soluble"},
      {"sequence": "MLRRTLHCCTAVRHTSVPSFMQHPVEMAFYFPRFHPDTHVNAAGIPELIDAVGLMTRHSRSSRAESTASASTSAAESAMSRALPPTRWTTTVSATAQPTTDASVVEAQKDNAKSLLLLERGIDILNSVGGVRNPTVANLLRPLYAARFEMLNGSEHLPRSEYAKRMHVHKAILQQAAPLLYYDAWDKSDVHQLDTSCVLVGHFMKAFCALHPRPFHPVAAPATSGGAGSSQASSTTTTASSSSSSNSNSNVTSSSSAQSTPKGAFNPAEWKMAVGDDGEGAYLTLSIVQDRVEELLRLATAAYDKHGSTHPELRWLRPKLLVLKGLLTIPLTGHLLHAQRCIEEAAHYVDALTKRTNLLLDGLKERTHEPELGLYMLLQAEIAARVFDWDVAPGQVDGDVVNMFTDAAGYYADPPNTTLDGDAIMSERKLAEQRFEVEAYACCLRSYAAFLLGASRPEATSTRDSPVFLAKQLFSLNPLLTVATSSSLIFSDVRNVSELPLDMCRRRTGEALDRALKLNRMLYPDFRQNAPAAATLMTMACMYADTRDYLYATGLFESANKAVTYNFGDTSLEHVFLQKLRYEFLAGVGSEQEAKTASHEVVHLLKRIDALPC", "soluble on expression in E. coli": "soluble"},
      {"sequence": "MTETEQEAFADLVAELETQTAEAVKAFSKVFDRMEETNDDKEGLSLLKLKNYEMTAYLGELTVLMSKMMKGESITVEPSVKRALKHRVFIEKMKPVEDKMKPQIEKLLGRSSAESGASNGSSKGNHRVRLDNMDVEGDEEEEEEDEDDEEGKGAKEVKKYVAPRIRAVRYEEEDEAPNKQQEKAKRRAMQSSLIMELKNQYSDAPEEIREMSEKKYQYDRERERYEEDNFTRIRLNKDQKRRSEQLGRSETLDDLLSFGDYMMRGEDGRALSEGNKRKRATSSGAGGDTKRHKKSQKERKKAAKGKKEGRKRAIRRRQ", "soluble on expression in E. coli": "not soluble"},
      {"sequence": "MYINNKLTEDLLLGEIYYLISKTYFFIENIQKAINFAFLAKSEFEKVYNKKAYAKSLELLAEEHAKVGDLESAIAYSKQSLNVYKELEQLDKISSIEDSLGKLFFEFDNIEESFEHYNRAIKIREENTDSKLLDTLFNLCENHIKTKNMNKCIEILNEIKNKLNVSDVNRLIEYKILTFRIEVLQNNIKEAENILLDTLEIAKRNDMKKKEADISIRLGKFYLELKRDYEAAKYLDKGINNLKNLGVIKSLEHHHHHH", "soluble on expression in E. coli": "not soluble"}
    ]}
  ]
}
